From PMC9779223
One block for each substance: values may come before it.

Legend:
[1] = target: Premixed complex of TnT1 and Tpm WT 134–284 (human) (UniProt P09493); test: ITC; MicroCal PEAQ-ITC, 25 °C; 30 mM HEPES-Na pH 7.3, 100 mM NaCl, 1 mM DTT; sample in the cell 30 to 60 µM, ligand in the syringe 200 to 700 µM; one set of binding sites
[2] = test system: P09493; test: viscosity measurement; falling ball microviscometer, 20 °C; Tpm 1.0 mg/mL (15 µM) with TnT1 at molar ratio 1/1; 30 mM HEPES-Na pH 7.3, 100 mM NaCl, 4 mM DTT; excess viscosity over buffer; conditions: other: viscosity measurement
[3] = test system: P09493; test: viscosity measurement; falling ball microviscometer, 20 °C; Tpm 1.0 mg/mL (15 µM), without TnT1; 30 mM HEPES-Na pH 7.3, 100 mM NaCl, 4 mM DTT; excess viscosity over buffer as read-out of the end-to-end overlap junction of Tpm dimers; conditions: other: viscosity measurement
[4] = target: Human Tpm1.1 (α-Tpm) WT (human) (UniProt P09493); test: ITC; MicroCal PEAQ-ITC, 25 °C; 30 mM HEPES-Na pH 7.3, 100 mM NaCl, 1 mM DTT; sample in the cell 30 to 60 µM, ligand in the syringe 200 to 700 µM; one set of binding sites
Human Tpm1.1 (α-Tpm) WT (human), sequence (P09493 other isoform, or with tags, fused parts or gaps): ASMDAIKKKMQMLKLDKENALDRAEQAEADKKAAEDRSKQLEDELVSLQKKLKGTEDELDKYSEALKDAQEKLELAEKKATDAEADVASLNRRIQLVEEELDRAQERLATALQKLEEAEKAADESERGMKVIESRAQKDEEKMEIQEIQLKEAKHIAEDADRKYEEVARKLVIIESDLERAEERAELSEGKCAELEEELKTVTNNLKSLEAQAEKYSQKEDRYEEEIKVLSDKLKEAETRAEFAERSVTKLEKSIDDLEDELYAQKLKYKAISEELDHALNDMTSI

[5] = target: Human Tpm1.1 (α-Tpm) I284V (human) (UniProt P09493); test: as above
Human Tpm1.1 (α-Tpm) I284V (human), sequence (P09493 other isoform, or with tags, fused parts or gaps I284V | I284V): as the sequence (P09493 other isoform, or with tags, fused parts or gaps) above, with I286V counted along it

[6] = target: Premixed complex of Tpm WT 1–133 and Tpm WT 134–284 (human) (UniProt P09493); test: as above
Premixed complex of Tpm WT 1–133 and Tpm WT 134–284 (human), sequence (P09493 other isoform, or with tags, fused parts or gaps, chain 1 of 2): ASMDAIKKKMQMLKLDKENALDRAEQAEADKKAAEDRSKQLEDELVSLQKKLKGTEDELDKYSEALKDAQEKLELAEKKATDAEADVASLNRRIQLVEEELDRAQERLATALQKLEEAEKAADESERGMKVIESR
Premixed complex of Tpm WT 1–133 and Tpm WT 134–284 (human), sequence (P09493 134-284, chain 2 of 2): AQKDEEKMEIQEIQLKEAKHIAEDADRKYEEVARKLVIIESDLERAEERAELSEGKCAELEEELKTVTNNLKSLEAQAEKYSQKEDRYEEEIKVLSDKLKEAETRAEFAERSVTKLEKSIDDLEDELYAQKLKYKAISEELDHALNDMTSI

[7] = target: Human Tpm1.1 (α-Tpm) M281T (human) (UniProt P09493); test: as above
Human Tpm1.1 (α-Tpm) M281T (human), sequence (P09493 other isoform, or with tags, fused parts or gaps M281T | M281T): as the sequence (P09493 other isoform, or with tags, fused parts or gaps) above, with M283T counted along it

[8] = target: Human Tpm1.1 (α-Tpm) M8R (human) (UniProt P09493); test: as above
Human Tpm1.1 (α-Tpm) M8R (human), sequence (P09493 other isoform, or with tags, fused parts or gaps M8R): as the sequence (P09493 other isoform, or with tags, fused parts or gaps) above, with M10R counted along it

[9] = target: Tropomyosin C-terminal fragment Tpm WT 134–284 (human) (UniProt P09493); test: as above
Tropomyosin C-terminal fragment Tpm WT 134–284 (human), sequence (P09493 134-284): as the sequence (P09493 134-284, chain 2 of 2) above

[10] = target: Human Tpm1.1 (α-Tpm) K15N (human) (UniProt P09493); test: as above
Human Tpm1.1 (α-Tpm) K15N (human), sequence (P09493 other isoform, or with tags, fused parts or gaps K15N | K15N): as the sequence (P09493 other isoform, or with tags, fused parts or gaps) above, with K17N counted along it

[11] = target: Human Tpm1.1 (α-Tpm) A277V (human) (UniProt P09493); test: as above
Human Tpm1.1 (α-Tpm) A277V (human), sequence (P09493 other isoform, or with tags, fused parts or gaps A277V | A277V): as the sequence (P09493 other isoform, or with tags, fused parts or gaps) above, with A279V counted along it

Kd [1]: 1700 nM | dH [1]: -6.5 kcal/mol | stoichiometry N [1]: 1.07
Substance: Tropomyosin N-terminal fragment Tpm WT 1–133 (from UniProt P09493 1-133) (domain or fragment)

Substance: Human Tpm1.1 (α-Tpm) WT
excess viscosity [2]: 0.992 ± 0.001 mPa·s | excess viscosity [3]: 0.125 mPa·s

Kd [4]: 910 nM | dH [4]: -9.69 kcal/mol | stoichiometry N [4]: 0.629 | Kd [5]: 1890 nM | dH [5]: -14.4 kcal/mol | stoichiometry N [5]: 0.775 | Kd [6]: 900 nM | dH [6]: -7.7 kcal/mol | stoichiometry N [6]: 0.69 | Kd [7]: 1520 nM | dH [7]: -8.83 kcal/mol | stoichiometry N [7]: 0.857 | Kd [8]: 1900 nM | dH [8]: 2.51 kcal/mol | stoichiometry N [8]: 1.15 | Kd [9]: 1900 nM | dH [9]: 2.1 kcal/mol | stoichiometry N [9]: 1.06 | Kd [10]: 1300 nM | dH [10]: -12.1 kcal/mol | stoichiometry N [10]: 1.05 | Kd [11]: 2510 nM | dH [11]: -10.6 kcal/mol | stoichiometry N [11]: 1.03
Substance: Human adult cardiac troponin T fragment TnT1 (TnT1–158) (domain or fragment)
